Reference: patent US7691590B2, “Reducing myelin-mediated inhibition of axon regeneration” (Children's Medical Center Corporation, priority 2001, dated 2010)
Where “and” joins values, the source holds several entries; their conditions need not be identical. Equal values may be shown once. One block for each molecule: values may come before it.

How the values were obtained:
[1] = test system: growth cones of E13 chick DRG neurons; test: Growth cone collapse assay with E13 chick DRG explants; type: cell-based; conditions: for growth cone collapsing activity after PI-PLC treatment of the neurons: PI-PLC pre-incubation; for EC50: E13 chick DRG growth cones, read-out: effective concentration for half-maximal response (EC50), growth cone collapse
Source text: OMgp is a Physiological Nogo Receptor Ligand and Inhibitor of Neurite Outgrowth. To examine whether any GPI-linked proteins in CNS myelin may act as inhibitors of neurite outgrowth, we treated purified bovine white matter myelin with phosphatidylinositol-specific phospholipase C (PI-PLC) and examined the released proteins for their ability to alter growth cone morphology in a growth cone collapse assay using embryonic day 13 chick dorsal root ganglia (E13 DRG)^6,9,10. […] Since the size of this band was similar to that of a previously identified CNS myelin protein OMgp^11,12, we used antibodies specific for OMgp to detect enrichment of cleaved OMgp in the PI-PLC supernatants by Western blot. […] Next, we examined whether purified recombinant OMgp protein was able to act as an inhibitor of neurite outgrowth in two well-established in vitro assays, the growth cone collapse^6,9,13 and the neurite outgrowth assays^3-7,9.
Growth Cone Collapse and Neurite Outgrowth Assays. Chick E13 DRG and E7 retina were isolated and cultured as described previously^9,10. DRG explants cultured overnight were used for growth cone collapse assays. To assess the effects of PI-PLC treatment, cultures were pre-incubated with 2 U/ml PI-PLC for 30 min prior to treatment with individual test proteins for an additional 30 min. To express NgR in E7 retinal ganglion neurons, we infected the explants with recombinant HSV for 24 hr. After incubation with each test protein for 30 min, retinal explants were fixed in 4% paraformaldehyde and 15% sucrose. Infection of HSV-LacZ was detected by a standard b-galatosidase staining protocol^20. FLAG-NgR expression was detected by incubating paraformaldehyde-fixed cultures with M2 anti-FLAG antibody (Sigma). Bound antibody was detected by incubation with AP-conjugated […] IgG second antibody and reaction with NBT and BCIP (Vector labs). Growth cone collapse was quantified only in those positively stained for b-galatosidase or immunoreactive for the FLAG epitope.

[2] = test system: chick E7 retinal ganglion neurons (RGN) expressing human NgR; test: Growth cone collapse in E7 retinal ganglion neurons expressing FLAG-NgR (HSV infection); type: cell-based; conditions: E7 RGN infected with HSV FLAG-NgR
Source text: To assess whether NgR is capable of mediating OMgp-induced inhibitory activity on neurite outgrowth, we next took a gain-of-function approach to examine whether expression of NgR was able to confer OMgp-responsiveness to otherwise insensitive neurons. It has been shown previously that chick E7 retinal ganglion neurons (RGN) are insensitive to Nogo-66, but that introduction of exogenous NgR in these neurons rendered their growth cones to be responsive to Nogo-66^9. Using the same strategy, we made a recombinant herpes simplex virus (HSV) that drives expression of a FLAG-tagged full-length human NgR (FLAG-NgR) in infected neurons. Upon infection, 80% of the E7 RGNs expressed the FLAG-NgR protein as assessed by immunocytochemistry with an anti-FLAG antibody. […] Furthermore, the growth cones of NgR-expressing axons also become collapsible by OMgp.
Growth Cone Collapse and Neurite Outgrowth Assays. […] Infection of HSV-LacZ was detected by a standard b-galatosidase staining protocol^20. FLAG-NgR expression was detected by incubating paraformaldehyde-fixed cultures with M2 anti-FLAG antibody (Sigma). Bound antibody was detected by incubation with AP-conjugated […] IgG second antibody and reaction with NBT and BCIP (Vector labs). Growth cone collapse was quantified only in those positively stained for b-galatosidase or immunoreactive for the FLAG epitope.

[3] = test system: cerebellar granule neurons (CGN); test: Neurite outgrowth assay with cerebellar granule neurons; type: cell-based; conditions: P7-9 rat CGN
Source text: To deplete OMgp, myelin was first solublized with 1% octylglucoside and the resultant extract was passed twice through columns with PNA-Agarose (Vector Laboratories) or control Agarose beads as described previously^12. The OMgp-enriched fraction was obtained by eluting the PNA-Agarose column with buffer containing 0.5 M D-galactose. As a significant portion of OMgp co-fractionated with Nogo-A in anion exchange columns^12, we enriched MAG or Nogo-A from myelin by applying the flow-through fractions from the PNA-Agarose columns onto a Q-Sepharose (Sigma) column^15. The column was then eluted stepwise with equal amount of buffers containing 0.15 M (MAG-enriched), 0.45 M (Nogo-A enriched), or 1.0 M NaCl^15. Aliquots of individual fractions were tested for their inhibitory activity in the neurite outgrowth assay as described previously^15,16,21.
Neurite outgrowth assays were performed as described previously^15,21. Briefly, P7-9 rat CGNs were dissected and then plated at a density of 1×10^5 cells per well. The cells were cultured for 24 hr prior to fixation with 4% paraformaldehyde and staining with a neuronal specific anti-b-tubulin antibody (TuJ-1, Covance). Quantification of neurite length and statistical analysis were performed as described previously^22.

[4] = target: T1, GST-NgR (extracellular domain of NgR) (Homo sapiens, UniProt Q9BZR6); test: Co-precipitation with GST-NgR on glutathione-Agarose beads; type: binding; conditions: for competition for binding to NgR: cell surface binding and co-precipitation assay
T1 construct: a GST fusion protein containing the entire extracellular domain of NgR (GST-NgR); made in house; OM-his made in COS-7 cells
T1 sequence (Q9BZR6 27-447 limits assumed): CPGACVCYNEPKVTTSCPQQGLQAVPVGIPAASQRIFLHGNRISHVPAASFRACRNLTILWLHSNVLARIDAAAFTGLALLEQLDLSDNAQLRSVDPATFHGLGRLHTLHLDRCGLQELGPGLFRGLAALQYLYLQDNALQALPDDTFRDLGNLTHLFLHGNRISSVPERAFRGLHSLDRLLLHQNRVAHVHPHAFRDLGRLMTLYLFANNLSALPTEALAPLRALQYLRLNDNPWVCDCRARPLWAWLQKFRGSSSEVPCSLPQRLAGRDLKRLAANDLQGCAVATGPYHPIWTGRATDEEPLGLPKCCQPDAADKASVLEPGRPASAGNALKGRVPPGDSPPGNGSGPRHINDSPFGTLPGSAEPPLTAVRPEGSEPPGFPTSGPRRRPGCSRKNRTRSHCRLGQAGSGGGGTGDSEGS
Protocol: To investigate the mechanisms by which OMgp inhibits neurite outgrowth, we used an expression cloning strategy^9,13,16 to identify cell surface OMgp-binding proteins. […] From pools of an adult human brain cDNA expression library, we isolated two cDNAs that encoded OMgp-binding proteins. […] We then established a CHO cell line stably expressing the NgR and determined the binding affinity of expressed NgR for AP-OM as 5 nM, similar to what had been determined for Nogo-66 (7 nM, ref. 9). […] We next performed co-precipitation experiments by incubating GST or a GST fusion protein containing the entire extracellular domain of NgR (GST-NgR) with OM-his alone or in the presence of AP or AP-66 protein. […] We next determined which domain(s) of OMgp was responsible for binding to NgR. Like NgR, OMgp is also a GPI-linked protein containing a leucine-rich repeat (LRR) domain. […] In addition, the C-terminal domain with serine-threonine repeats (AP-S/T) alone was also able to bind, though less strongly, to NgR expressing cells.
In co-precipitation experiments, 2 mg GST or GST-NgR were first immobilized to glutathione-Agarose beads and the beads were further incubated with or without 1 mg OM-his in the presence of 2 mg of AP or AP-66 at 4° C. for 2 hr. After extensive washing, the bound proteins were resolved with SDS-PAGE and detected by Western blotting.

B1: Semaphorin 3A: control growth cone collapsing protein acting through neuropilin-1 and plexin receptors (protein, UniProt Q14563 21-771, looked up)
Semaphorin-3A: NYQNGKNNVPRLKLSYKEMLESNNVITFNGLANSSSYHTFLLDEERSRLYVGAKDHIFSFDLVNIKDFQKIVWPVSYTRRDECKWAGKDILKECANFIKVLKAYNQTHLYACGTGAFHPICTYIEIGHHPEDNIFKLENSHFENGRGKSPYDPKLLTASLLIDGELYSGTAADFMGRDFAIFRTLGHHHPIRTEQHDSRWLNDPKFISAHLISESDNPEDDKVYFFFRENAIDGEHSGKATHARIGQICKNDFGGHRSLVNKWTTFLKARLICSVPGPNGIDTHFDELQDVFLMNFKDPKNPVVYGVFTTSSNIFKGSAVCMYSMSDVRRVFLGPYAHRDGPNYQWVPYQGRVPYPRPGTCPSKTFGGFDSTKDLPDDVITFARSHPAMYNPVFPMNNRPIVIKTDVNYQFTQIVVDRVDAEDGQYDVMFIGTDVGTVLKVVSIPKETWYDLEEVLLEEMTVFREPTAISAMELSTKQQQLYIGSTAGVAQLPLHRCDIYGKACAECCLARDPYCAWDGSACSRYFPTAKRRTRRQDIRNGDPLTHCSDLHHDNHHGHSPEERIIYGVENSSTFLECSPKSQRALVYWQFQRRNEERKEEIRVDDHIIRTDQGLLLRSLQQKDSGNYLCHAVEHGFIQTLLKVTLEVIDTEHLEELLHKDDDGDGSKTKEMSNSMTPSQKVWYRDFMQLINHPNLNTMDEFCEQVWKRDRKQRRQRPGHTPGNSNKWKHLQENKKGRNRRTHEFERAPRSV
growth cone collapsing activity after PI-PLC treatment of the neurons ([1]; E13 chick DRG): not affected

B2: OMgp: oligodendrocyte-myelin glycoprotein, GPI-anchored CNS myelin protein (protein, UniProt P23515 25-417, looked up)
Oligodendrocyte-myelin …: ICPLQCICTERHRHVDCSGRNLSTLPSGLQENIIHLNLSYNHFTDLHNQLTQYTNLRTLDISNNRLESLPAHLPRSLWNMSAANNNIKLLDKSDTAYQWNLKYLDVSKNMLEKVVLIKNTLRSLEVLNLSSNKLWTVPTNMPSKLHIVDLSNNSLTQILPGTLINLTNLTHLYLHNNKFTFIPDQSFDQLFQLQEITLYNNRWSCDHKQNITYLLKWMMETKAHVIGTPCSTQISSLKEHNMYPTPSGFTSSLFTVSGMQTVDTINSLSVVTQPKVTKIPKQYRTKETTFGATLSKDTTFTSTDKAFVPYPEDTSTETINSHEAAAATLTIHLQDGMVTNTSLTSSTKSSPTPMTLSITSGMPNNFSEMPQQSTTLNLWREETTTNVKTPLPS
growth cone collapsing activity after PI-PLC treatment of the neurons ([1]; E13 chick DRG): abolished | growth cone collapse response in NgR-expressing neurons [2]: collapsible

competition for binding to NgR [4]: competed for binding to NgR | direct binding to GST-NgR ([4]; co-precipitation, control GST did not bind): bound
B3: OM-his: purified recombinant polyhistidine-tagged mouse OMgp protein (amino acids 23-392) expressed in COS-7 cells (protein)
chain: LCICPLQCTCTERHRHVDCSGRNLTTLPPGLQENIIHLNLSYNHFTDLHNQLTPYTNLRTLDISNNRLESLPAQLPRSLWNMSAANNNIKLLDKSDTAYQWNLKYLDVSKNMLEKVVLIKNTLRSLEVLNLSSNKLWTVPTNMPSKLHIVDLSNNSLTQILPGTLINLTNLTHLYLHNNKFTFIPEQSFDQLLQLQEITLHNNRWSCDHKQNITYLLKWVMETKAHVIGTPCSKQVSSLKEQSMYPTPPGFTSSLFTMSEMQTVDTINSLSMVTQPKVTKTPKQYRGKETTFGVTLSKDTTFSSTDRAVVAYPEDTPTEMTNSHEAAAATLTIHLQDGMSSNASLTSATKSPPSPVTLSIARGMPNNFSE
modifications: left off: small tags and cut ends
notes: purified recombinant polyhistidine-tagged mouse OMgp protein (amino acids 23-392) expressed in COS-7 cells
inhibition of neurite outgrowth [3]: inhibited neurite outgrowth | growth cone collapsing activity ([1]; E13 chick DRG): induced the collapse of growth cones | EC50 [1]: ~1.5 nM and 1.5 nM

competition for binding to NgR [4]: competed for binding to NgR
B4: AP-66: alkaline phosphatase fusion protein containing the 66 amino acid extracellular domain of Nogo-A (protein)
chain: RIYKGVIQAIQKSDEGHPFRAYLESEVAISEELVQKYSNSALGHVNCTIKELRRLFLVDDLVDSLK
modifications: also: fused to alkaline phosphatase
notes: alkaline phosphatase fusion protein containing the 66 amino acid extracellular domain of Nogo-A
EC50 [1]: 2.3 nM
